Patent publication CN117624352A (UNIV XIAMEN, dated 2024)

Assays:
[1] = target: T1, Tmem176b表达纯化抗原142-196aa xy02b-hFc-6His(Abclonal) (mouse, UniProt Q9R1Q6 142-196); assay: Biacore (SPR); antigen coupled to the chip, 6E8 as analyte at 1.5625-50 nM; mean of 3 runs
T1 construct: range 142-196; also called 体外表达纯化抗原Tmem176b; Tmem176b抗原; not shown: hFc of the xy02b-hFc-6His vector; 6His tag
T1 sequence (looked up): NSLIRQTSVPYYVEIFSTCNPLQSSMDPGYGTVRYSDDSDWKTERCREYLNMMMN

[2] = target: T1, Tmem176b表达纯化抗原142-196aa …; assay: Capture ELISA; antibody coated at 2 μg/mL, antigen titrated from 0.1 μg/ml in 3-fold steps

B1: Tmem176b单克隆抗体6E8 (antibody, V domains shown)
VH: QSVEESGGRLLKPDETLTLTCTVSGFSLSSYAMSWVRQAPGKGLEWIGIISIRGNTYYASWAKGRFTISKTSTTVDLKITSPTTEDTATYFCARNTLYSSGWGGSDLWGQGTLVTVSS
VL: AQVLTQTPSPVSAAVGGTVTINCQASQSVYNNNNLAWYQQKPGQPPKLLIYYASTLASGVSSRFKGSGSGTQFTLTISGVQCDDAATYYCQGEFSCSSADCNAFGGGTEVVVKG
notes: Recombinant rabbit monoclonal antibody; also called α-Tmem176b单抗(6E8); Tmem176b单抗6E8
B1 was tested, and the Kd [1] was 0.959 nM and the EC50 [2] was 0.893 ng/mL.
